Assay results taken from the supplement of paper PMC10567573.

B1: SNAP91 (parent)
chain: FSTDAFSSPPQGASPVPESSLTAD
B2: RHOBTB3 (parent)
chain: GGADIIVIKYNVNDKFSFHEVKDN

Variants of: B1
Experiment: protein stability index of a GFP-peptide fusion (GPS, HEK-293T) (PSI 1-6); higher = more stable
Conditions: c terminus: a fixed tail appended
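Also: lentivirally expressed fusions sorted by FACS into six bins by GFP to DsRed ratio, PSI derived from sequencing read proportions per bin multiplied by bin number.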

Protein stability index: each site, then its substitutions
T3: Y 4.46, D 5.08, F 4.6, G 4.47, S 2.95, L 4.93, W 4.38, M 3.37, A 5.12, K 4.93, R 4.91, E 5.08, Q 5.5, V 4.56, P 4.49, H 5.4, I 4.4, C 4.3, N 4.84
S2: A 2.09, T 1.67, D 5.7, Y 4.7, R 5.05, M 3.32, K 5.08, Q 2.58, F 3.96, V 3.15, W 3.48, G 2.8, E 5.52, N 5.09, H 2.15, C 2.46, I 1.64, L 3.34, P 3
D4: S 2.82, R 2.37, Q 3.28, C 2.76, A 3.25, Y 3.02, H 3.44, W 1.67, V 3.28, G 2.71, L 2.63, N 2.66, M 2.92, I 3.45, E 4.2, F 3.06, T 2.21, K 2.94, P 4.29
A5: Q 4.88, C 4.07, G 4.76, I 3.79, L 3.55, R 4.71, F 2.03, S 4.68, H 4.59, M 4.56, D 5.61, E 4.8, P 4.94, N 5.16, K 4.71
F1: Q 5.64, L 5.57, R 5.39, E 5.47, T 5.55, N 5.74, I 5.36, D 5.72, W 5.19, P 5.68, K 5.34, S 5.65, Y 3.31, G 5.54, M 5.44, V 5.52, A 5.73, H 5.37, C 5.07

Variants of: B2
Experiment: as above
Conditions: c terminus: a fixed tail appended

Protein stability index of substitutions, site by site:
I5: T 2.47, V 1.43, F 1.78, P 3.58, A 1.81, W 2.59, D 4.15, S 3.31, E 3.59
I6: M 1.92, C 1.67, R 3.1, Y 2.23, Q 3.98, K 3, G 4.03, H 2.92, T 2.45, A 3.21
V12: Y 2.38, T 2.73, R 2.8, L 2.24, G 2.7, H 1.92, A 2.83, D 1.95, P 2.13, K 1.82, Q 2.3, S 1.9
F18: C 3.13, M 1.87, E 1.76, H 1.76, G 2.03, S 1.86, A 3.47, W 2.08, V 2.49, T 2.63, L 2.53
S17: A 3.54, H 2.69, F 3.05, R 2.35, C 2.27, N 3.14, D 2.64
D14: A 3.34, T 2.67, N 3.12, K 3.14, F 3.63, V 4.54, I 4.53, W 2.63
V21: I 2.23, P 2.01, K 2.59, L 2.72, H 2.15, E 1.37, R 2.42, Q 2.29, A 3.15, M 3.97
D23: W 3.21, G 2.34, Q 2.76, S 2.21, V 2.83, I 2.36, L 3.42, M 2.02, E 2.68, P 3.16, T 4.21, N 2.44, Y 2.28
Y10: F 2.26, G 2.19, M 1.94, H 1.92, C 3.4, E 2.29, R 2.53, T 1.92, P 2.77, D 3.68, K 1.82, I 4.15
E20: D 3.45, F 2.75, N 3.38, G 2.78, R 2.93, L 2.02, C 3.82, H 1.9, T 1.52, S 2.76, P 1.33, W 2.67, K 1.88, Y 2.26, A 1.55, M 2.91
H19: K 2.44, E 2.5, M 3.71, C 3.17, R 2.82, P 2.55, T 2.52, G 2.55, Y 3.29, N 3.79, Q 3.57, V 2.72
D4: A 2.91, I 3.04, S 2.66, C 2.96, M 3.48, F 1.97, N 2.47, P 3.07, V 3.66, E 4.16, R 4.21
V7: F 3.21, C 1.79, S 2.17, A 2.17, Q 2.31, H 2.28, M 2.06, W 1.52, D 4.15, T 1.6, K 2.33, Y 2.29, I 2.46
K15: Y 2.75, H 2.87, D 4.13, N 3.83, L 3.48, V 3.95, W 3.18
G1: S 3.49, F 2.69, Q 2.37, V 2.1, K 2.99, E 2.13, P 2.18, I 2.53, R 3.04, M 1.97, L 2.44, D 2.67
F16: I 2.88, K 1.73, E 2.12, P 2.55, W 4.02, S 3.13, T 2.33, C 2.2, Q 1.85, R 1.6, M 2.04, N 1.84
N13: P 3.19, R 1.99, I 2.93, Q 3.3, W 1.96
N24: L 3.07, S 2.71, M 3.25, V 3.86, C 2.34, E 1.44, F 3.49, R 1.86
G2: Q 1.86, K 2.86, L 1.71, R 2.76, A 1.69, H 3.5, E 1.98, F 3.68, P 1.52, M 3.43, T 2.38, I 1.52
K22: L 2.43, Q 2.01, E 3.13, W 2.75, D 2.36, Y 3.11, P 3.07, H 3.97, V 3.25, T 2.58
I8: F 1.44, A 1.78, C 2.22, V 1.81, T 2.95, K 3.96, Y 1.59, R 3.17, G 2.92, L 1.47
K9: A 1.67, P 2.07, F 3.82, L 2.84, I 4.01, M 3.15, D 1.66, G 3.78
A3: I 3.1, D 2.85, T 2.21, L 2.64, S 1.74, E 1.74, Y 2.96
N11: M 3.72, P 3.2, V 3.99, E 1.76, H 3.1, K 4.82, W 3.58, G 3.11
